This is an account of results in patent publication US20220017612A1 (TILOS THERAPEUTICS, published 2022).

Experiment [1] addresses T1, human LAP-TGFβ1 overexpressed on cells (human, UniProt P01137 30-390).
T1 construct: HT1080 or P3U1 cells overexpressing wild-type human LAP-TGFβ1; also called HT1080-huB1; HT1080-hβ1
Description: flow cytometry; black bar HT1080-huB1, grey bar HT1080-null.

Experiment [2] addresses T2, human GARP and human LAP-TGFβ1 co-expressed on P3U1 cells (human, UniProt Q14392 20-662).
T2 construct: whole, on cells; also called P3U1 cells over-expressing human GARP and LAP-TGFβ1
Description: flow cytometry competition with biotin-28G11 (0.31 µg) on P3U1 cells with human GARP and LAP-TGFβ1. As to the method:
In the first experiment, the various humanized 28G11 candidates were tested for retention of binding to human LAP-TGFβ1 by competition with biotin-28G11 in a flow cytometry assay.
P3U1 cells over-expressing human GARP and LAP-TGFβ1 were placed in a round-bottom 96-well plate at density of 40,000 cells/well. The cells were washed with FACS buffer (25 mM HEPES, 2 mM EDTA, 2% fetal bovine serum in Hank's Balanced Salt Solution). 50 μL of 1:200 diluted TruStain Mouse FcX (BioLegend) was added to each well, followed by 50 μL of 100 ng/μL of humanized 28G11 construct (H0L0, H0L1, H0L2, H0L3, HILO, H1L1, H1L2, H1L3, H2L0, H2L1, H2L2, H2L3). The antibody was allowed to bind for 10 minutes. 50 μL of 6.2 ng/μL of biotinylated murine hybridoma 28G11_(hyb) was added to each well. The biotinylated antibody was allowed to bind for 10 minutes, and then the cells were washed twice with FACS buffer. The cells were labeled for 15 minutes with allophytocyanin-streptavidin (BioLegend), washed twice with FACS buffer, and analyzed by flow cytometry.
In general terms: Flow cytometry measures light scatter and fluorescence of single cells or particles in a stream.

Experiment [3] deals with T3, LAP-TGFβ1 on THP-1 cells (Homo sapiens, UniProt P01137).
T3 construct: cell surface, endogenous; also called LAP+ THP-1 cells
Nature of the experiment: flow cytometry, THP-1 cells, % positive cells. The protocol:
Anti-LAP antibodies were tested for their ability to bind to THP-1 cells, a cell line derived from a patient with acute monocytic leukemia that is reported to express LRRC33. THP-1 cells were incubated with FACS buffer and human Fc block followed by incubation with varying concentrations of Alexa 647 conjugated 28G11_(hyb), 22F9_mIgG2a, 20E6_mIgG2a, 17G8_hIgG1, 24E3_hIgG1, 2C9_mIgG2a, or mIgG2a isotype control. Cells were analyzed by flow cytometry and graphed as percent positive THP-1 cells or median fluorescent intensity (MFI) of anti-LAP binding. As shown in FIGS. 10A and 10B, antibodies 22F9, 17G8, 24E3, 20E6, and 2C9 display strong binding to THP-1 cells. […] In another experiment, the binding of 20E6 mIgG2a and 7H4 hyb to THP-1 cells was compared using the methods described above. […] In a separate experiment THP-1 cells were incubated with FACS buffer and human Fc block followed by incubation with 5 ug/ml of Alexa 647 conjugated 28G11_hyb, 22F9_mIgG2a, 20E6_mIgG2a, 2C9_mIgG2a, or IgG2a isotype control. Cells were analyzed by flow cytometry and gated as single cells. Representative dot plots are shown in FIG. 10D; in these plots, antibodies were at 5 ug/ml.

Experiment [4] deals with T4, LAP-TGFβ1 on U937 cells (Homo sapiens, UniProt P01137).
T4 construct: cell surface, endogenous; also called LAP+ U937 cells
Nature of the experiment: flow cytometry dot plot against GARP, U937 cells, Alexa 647 antibody at 10 ug/ml. The protocol:
(§1) Anti-LAP antibodies were tested for their ability to bind to U937 cells, a myeloid cell line derived from a patient with histiocytic lymphoma. U937 cells were incubated with FACS buffer and human Fc block followed by incubation with varying concentrations of Alexa 647 conjugated 28G11_hyb, 22F9_mIgG2a, or 20E6_mIgG2a. In a separate experiment U937 cells were incubated with FACS buffer and human Fc block followed by incubation with 10 ug/ml of Alexa 647 conjugated 28G11_hyb, 22F9_mIgG2a, 20E6_mIgG2a or mIgG2a isotype control (FIGS. 10E and 10F). Representative dot plots are shown in FIG. 10G; in these plots, antibodies were at 10 ug/ml.

For experiment [5], the target named is T4, LAP-TGFβ1 on U937 cells. Nature of the experiment: flow cytometry, U937 cells, Alexa 647 antibody, % LAP+ cells. The protocol: as §1
The target in experiment [6] is murine LAP-TGFβ1 overexpressed on cells (mouse, UniProt P04202 30-390). Nature of the experiment: cell-based or functional assay.
Experiment [7] concerns the target T1, human LAP-TGFβ1 overexpressed on cells. Nature of the experiment: cell-based or functional assay.
Experiment [8] has the same target. Nature of the experiment: flow cytometry; black bar HT1080-huB1, grey bar HT1080.

T4 sequence (P01137 30-390 limits assumed): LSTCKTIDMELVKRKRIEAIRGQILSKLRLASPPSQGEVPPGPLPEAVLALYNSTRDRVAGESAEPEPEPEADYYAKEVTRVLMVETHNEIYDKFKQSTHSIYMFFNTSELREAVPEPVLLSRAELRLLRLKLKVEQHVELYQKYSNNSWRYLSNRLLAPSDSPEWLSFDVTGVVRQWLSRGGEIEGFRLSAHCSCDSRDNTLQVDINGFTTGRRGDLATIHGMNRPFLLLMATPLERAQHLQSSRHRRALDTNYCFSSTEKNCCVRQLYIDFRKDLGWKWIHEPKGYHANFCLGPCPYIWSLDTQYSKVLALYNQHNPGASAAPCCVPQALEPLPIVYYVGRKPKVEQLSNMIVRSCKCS
T1 sequence (P01137 30-390): as the sequence (P01137 30-390 limits assumed) above
T2 sequence (chain, as listed by the source, chain 1 of 2): as the sequence (P01137 30-390 limits assumed) above
T2 sequence (Q14392 20-662, chain 2 of 2): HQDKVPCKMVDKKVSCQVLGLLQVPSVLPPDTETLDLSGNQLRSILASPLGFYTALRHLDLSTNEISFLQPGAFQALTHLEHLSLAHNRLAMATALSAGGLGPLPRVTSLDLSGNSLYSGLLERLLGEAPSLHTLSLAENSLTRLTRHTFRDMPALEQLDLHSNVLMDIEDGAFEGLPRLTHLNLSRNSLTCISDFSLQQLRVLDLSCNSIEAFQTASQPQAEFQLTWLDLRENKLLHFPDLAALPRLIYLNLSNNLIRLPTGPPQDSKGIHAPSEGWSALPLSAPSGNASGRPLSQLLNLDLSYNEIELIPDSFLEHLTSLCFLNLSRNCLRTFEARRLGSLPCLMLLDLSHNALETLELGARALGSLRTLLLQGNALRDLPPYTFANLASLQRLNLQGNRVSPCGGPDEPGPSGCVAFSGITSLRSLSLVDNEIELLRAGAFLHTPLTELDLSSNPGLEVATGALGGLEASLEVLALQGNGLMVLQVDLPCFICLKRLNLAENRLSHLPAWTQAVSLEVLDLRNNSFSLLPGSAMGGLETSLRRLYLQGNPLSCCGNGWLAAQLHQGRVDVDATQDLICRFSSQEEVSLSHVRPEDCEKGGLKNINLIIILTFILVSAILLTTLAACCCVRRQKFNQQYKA
T3 sequence (P01137 30-390 limits assumed): as the sequence (P01137 30-390 limits assumed) above
Chain of murine LAP-TGFβ1 overexpressed on cells (P04202 30-390): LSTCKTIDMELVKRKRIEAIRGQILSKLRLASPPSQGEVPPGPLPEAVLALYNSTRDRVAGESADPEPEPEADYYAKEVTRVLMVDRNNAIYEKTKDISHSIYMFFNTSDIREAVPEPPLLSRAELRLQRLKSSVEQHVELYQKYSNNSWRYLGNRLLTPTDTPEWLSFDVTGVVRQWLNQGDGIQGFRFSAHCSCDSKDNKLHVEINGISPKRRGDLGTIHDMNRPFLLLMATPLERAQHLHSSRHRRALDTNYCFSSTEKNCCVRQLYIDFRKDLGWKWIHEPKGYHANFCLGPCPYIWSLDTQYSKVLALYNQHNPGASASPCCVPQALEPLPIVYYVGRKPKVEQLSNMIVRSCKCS

B1: 20E6 H0.1 construct (antibody, human IgG1, kappa, V domains shown)
VH: QVQLVQSGAEVKKPGASVKVSCKASGYTFTSYWMHWVRQAPGQGLEWMGRIDPNSGGIKYAQKFQGRATLTVDTSTSTAYMELSRLRSDDTAVYYCARWDYGGYFDVWGQGTLVTVSS
VL: DIQMTQSPSSLSASVGDRVTITCRASQDITNYLNWYQQKPGKAVKLLIYYTSRLHSGVPSRFSGSGSGTDYTLTISSLQPEDFATYFCQQGDTLPWTFGQGTKLEIKR
With B1, the binding result in experiment [1] was “binds”.

B2: 28G11_H0L3 (antibody, human IgG1, kappa, V domains shown)
VH: EVQLVESGGGLVQPGGSLRLSCAASGFTFSDYYMSWVRQAPGKGLEWVGFIRNKPNGYTTEYSASVKGRFTISRDDSKNSLYLQMNSLKTEDTAVYYCARYTGGGYFDYWGQGTLVTVSS
VL: DIQMTQSPSSLSASVGDRLTISCRASQDISNYLNWYQQKPGKTVKLLIYYTSRLHSGVPSRFSGSGSGTDYTLTISSLQPEDVATYFCQQGDTLPWTFGQGTKLEIKR
In the case of B2, the binding result in experiment [2] is listed as “no binding (tested: 5 µg competitor)”.

B3: 28G11_H2L0 (antibody, human IgG1, kappa, V domains shown)
VH: EVQLVESGGGLVQPGGSLRLSCAASGFTFTDYYMSWVRQAPGKGLEWLGFIRNKPNGYTTEYSASVKGRFTISRDNSQSSLYLQMNSLKTEDTAVYYCARYTGGGYFDYWGQGTLLTVSS
VL: DIQMTQSPSSLSASVGDRVTITCRASQDISNYLNWYQQKPGKVPKLLIYYTSRLHSGVPSRFSGSGSGTDFTLTISSLQPEDVATYYCQQGDTLPWTFGQGTKLEIKR
Take B3: in experiment [2], the binding result is “no binding (tested: 5 µg competitor)”.

B4: 7H4 (antibody, mouse IgG2b, kappa, V domains shown)
VH: DVQLQESGPGLVKPSQSLSLTCSVTGYSITSGYYWNWIRQFPGNKLEWMGYISYDGTNNYNPSLKNRISITRDTSKHQFFLKLNSVTTEDTATYYCARSFYNNYFDFWGQGTTLTVSS
VL: DIQMTQSPSSLSASLGGKVTITCKASQDIDKYIAWYQHKPGKGPRLLIHYTSTLQPGIPSRFSGSGSGRDYSFNISNLEPEDIATYYCLQYDNLRTFGGGTKLEIKR
notes: also called 7H4 hyb; 7H4_(hyb)
Take B4: the binding result in experiment [3] is “no binding (tested: 100 ug/ml)”.

B5: 22F9_mIgG2a (antibody, V domains shown)
VH: QVQLQQPGAELVKPGASVKLSCKASGYTFTSYWMHWVKQRPGQGLEWIGMIHPNSGSTNYNEKFKSKATLTVDKSSSTAYMQLSSLTSEDSAVYYCAYYDYDGFFDVWGTGTTVTVSS
VL: DIVLTQSPASLDVSLGQRATISCRASKSVSTSGYSYMHWYQQKSGQPPKLLIYLASNLESGVPARFSGSGSGTHFTLNIHPVEEEDAATYYCQHSRELPYTFGGGTKLEIK
notes: also called 22F9_IgG2a
Regarding B5, in experiment [4], the “% of cells in Q1 (antibody axis positive, GARP negative)” value came out at 43.8% and the “% of cells in Q2 (antibody axis positive, GARP positive)” value was determined as 0.44%. In addition, the “EC50 (read off the curve)” value in experiment [5] is about 20 µg/mL. Moreover, in experiment [6], the “IC50 of inhibition of TGFβ1 activation” value amounted to 1 µg/mL. In addition, the “IC50 of inhibition of TGFβ1 activation” value in experiment [7] was 1.8 µg/mL.

B6: 22F9_Y98R (antibody, human IgG1, kappa, V domains shown)
VH: QVQLVQPGAEVVKPGASVKLSCKASGYTFTSYWMHWVKQRPGQGLEWIGMIHPNSGSTNYNEKFKSKATLTVDKSSSTAYMELSSLRSEDTAVYYCARYDYDGFFDVWGQGTLVTVSS
VL: DIQLTQSPSSLSASVGDRVTITCRASKSVSTSGYSYMHWYQQKPGKAPKLLIYLASNLESGVPSRFSGSGSGTDFTLTISSLQPEDFATYYCQHSRELPYTFGGGTKVEIKR
notes: also called 22F9_H5L0 with VH Y98R
For the molecule B6, in experiment [8], the binding result is recorded as “binds”.

The term EC50 (read off the curve) denotes the concentration that produces a half-maximal response. Low readings indicate an effect from little substance, high ones a need for much substance.
